Columns and labels:
Experiment in all cases: HuProt protein array, F635 z-score
[1] = molecular target: T1, O-linked N-acetylglucosamine (GlcNAc) transferase (OGT) (human, UniProt O15294 2-1046)
T1 construct: The array carries full-length recombinant human proteins expressed in S. cerevisiae; also called Human OGT
T1 sequence: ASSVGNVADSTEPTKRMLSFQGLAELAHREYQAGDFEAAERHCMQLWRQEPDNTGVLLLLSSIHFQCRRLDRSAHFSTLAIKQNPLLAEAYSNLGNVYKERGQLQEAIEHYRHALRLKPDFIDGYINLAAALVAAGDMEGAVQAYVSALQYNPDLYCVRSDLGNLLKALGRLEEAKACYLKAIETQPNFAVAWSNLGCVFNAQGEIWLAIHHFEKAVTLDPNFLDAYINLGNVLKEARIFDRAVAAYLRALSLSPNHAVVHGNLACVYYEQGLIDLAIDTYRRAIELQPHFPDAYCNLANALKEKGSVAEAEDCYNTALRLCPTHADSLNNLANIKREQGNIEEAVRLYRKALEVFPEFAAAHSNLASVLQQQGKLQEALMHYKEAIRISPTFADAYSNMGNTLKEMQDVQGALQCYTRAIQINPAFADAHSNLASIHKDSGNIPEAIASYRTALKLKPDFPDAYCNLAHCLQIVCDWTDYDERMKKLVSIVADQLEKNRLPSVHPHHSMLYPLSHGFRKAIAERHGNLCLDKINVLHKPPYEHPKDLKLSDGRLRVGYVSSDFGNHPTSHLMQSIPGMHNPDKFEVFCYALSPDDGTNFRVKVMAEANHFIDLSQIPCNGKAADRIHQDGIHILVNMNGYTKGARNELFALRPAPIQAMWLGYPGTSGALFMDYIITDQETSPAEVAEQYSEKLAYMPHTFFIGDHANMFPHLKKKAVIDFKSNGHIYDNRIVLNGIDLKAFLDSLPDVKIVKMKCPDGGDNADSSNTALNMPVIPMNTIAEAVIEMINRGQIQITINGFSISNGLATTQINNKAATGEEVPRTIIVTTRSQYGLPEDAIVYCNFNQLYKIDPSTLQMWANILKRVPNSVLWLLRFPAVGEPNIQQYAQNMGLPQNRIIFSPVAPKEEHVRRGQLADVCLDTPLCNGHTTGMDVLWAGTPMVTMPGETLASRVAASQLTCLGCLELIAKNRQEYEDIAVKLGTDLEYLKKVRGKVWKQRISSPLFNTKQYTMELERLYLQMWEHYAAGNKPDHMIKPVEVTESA
Description: (§1) Large scale protein arrays are versatile and sensitive platforms for antibody specificity evaluation. They can be used for the evaluation of protein binding or affinity reagents that are widely employed in research and clinical applications. The microarray used in our target identification experiment provides the largest number of unique, full-length, individually purified human proteins on a single microscope slide. This allows thousands of interactions to be profiled in a high-throughput manner. The hill-length recombinant proteins are expressed in the yeast S. cerevisiae, purified, and printed on glass slides in duplicate along with a set of control proteins (GST, BSA, histones, IgG, etc.). Such microarray is not restricted to a particular type of surface coating, although the default is glass coated with ultra-thin nitrocellulose film for the non-covalent, yet irreversible, capture of active proteins to the surface. Fourteen Protein arrays were used for the antibody cross-reactivity assay of the samples. The antibodies were probed at […] on the arrays and incubated at room temperature for 1 hour. After probing, the arrays were washed according to the protocol and probed with Alexa-647-anti-human IgG […] specific secondary antibodies under conditions optimized for signal detection. The antibody-antigen binding score was calculated for each protein represented on the array and expressed as z-scores.
(§2) Antibody samples are probed on native HuProt arrays at 1 μg/ml and incubated at room temperature for 1 hour. After probing, the arrays are washed according to the standard protocols and probed with Alexa-647-anti-human IgG Fc gamma specific secondary antibodies under conditions optimized for signal detection.
(§3) Z score is the average Z score of the duplicate spots of a given protein (each protein is printed in duplicate on a HuProt™ array). The Z score of each spot on a given array is calculated according to the equation: […]

[2] = molecular target: T2, Chromobox protein homolog 1 (CBX1) (human, UniProt P83916 1-185)
T2 construct: The array carries full-length recombinant human proteins expressed in S. cerevisiae; also called Human Chromobox protein homolog 1
Description: as §1, §2, §3

[3] = molecular target: T3, Chromobox protein homolog 5 (CBX5) (human, UniProt P45973 1-191)
T3 construct: The array carries full-length recombinant human proteins expressed in S. cerevisiae; also called Human Chromobox protein homolog 5
Description: as §1, §2, §3

[4] = molecular target: T4, Alpha-taxilin (TXLNA) also known as interleukin-14A (human, UniProt P40222 1-546)
T4 construct: The array carries full-length recombinant human proteins expressed in S. cerevisiae; also called IL-14A; TXLNA/IL-14A
Description: as §1, §2, §3

[5] = molecular target: T5, Melanoma-associated antigen 3 (MAGE-A3) (human, UniProt P43357 1-314)
T5 construct: The array carries full-length recombinant human proteins expressed in S. cerevisiae; also called Human MAGE-A3
Description: as §1, §2, §3

[6] = molecular target: T6, Cancer/testis antigen 1 (CTAG1A) (human, UniProt P78358 1-180)
T6 construct: The array carries full-length recombinant human proteins expressed in S. cerevisiae; also called NY-ESO-1; Cancer/Testis Antigen 1A
Description: as §1, §2, §3

[7] = molecular target: T7, Inorganic pyrophosphatase (PPA1) (human, UniProt Q15181 2-289)
T7 construct: The array carries full-length recombinant human proteins expressed in S. cerevisiae; also called Human PPA1
T7 sequence: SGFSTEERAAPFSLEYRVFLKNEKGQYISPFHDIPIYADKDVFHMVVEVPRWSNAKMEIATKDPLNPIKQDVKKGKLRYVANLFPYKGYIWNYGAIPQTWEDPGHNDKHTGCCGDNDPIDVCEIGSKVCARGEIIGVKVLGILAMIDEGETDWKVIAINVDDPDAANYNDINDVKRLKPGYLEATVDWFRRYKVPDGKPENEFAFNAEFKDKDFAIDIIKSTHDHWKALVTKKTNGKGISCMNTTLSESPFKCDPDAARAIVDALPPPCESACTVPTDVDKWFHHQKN
Description: as §1, §2, §3

[8] = molecular target: T8, Src homology 2 (SH2) domain containing inositol polyphosphate 5-phosphatase 1 (SHIP1) (human, UniProt Q92835 1-1189)
T8 construct: The array carries full-length recombinant human proteins expressed in S. cerevisiae, purified and printed on glass slides; also called INPP5D; INPP5D/SHIP1
T8 sequence: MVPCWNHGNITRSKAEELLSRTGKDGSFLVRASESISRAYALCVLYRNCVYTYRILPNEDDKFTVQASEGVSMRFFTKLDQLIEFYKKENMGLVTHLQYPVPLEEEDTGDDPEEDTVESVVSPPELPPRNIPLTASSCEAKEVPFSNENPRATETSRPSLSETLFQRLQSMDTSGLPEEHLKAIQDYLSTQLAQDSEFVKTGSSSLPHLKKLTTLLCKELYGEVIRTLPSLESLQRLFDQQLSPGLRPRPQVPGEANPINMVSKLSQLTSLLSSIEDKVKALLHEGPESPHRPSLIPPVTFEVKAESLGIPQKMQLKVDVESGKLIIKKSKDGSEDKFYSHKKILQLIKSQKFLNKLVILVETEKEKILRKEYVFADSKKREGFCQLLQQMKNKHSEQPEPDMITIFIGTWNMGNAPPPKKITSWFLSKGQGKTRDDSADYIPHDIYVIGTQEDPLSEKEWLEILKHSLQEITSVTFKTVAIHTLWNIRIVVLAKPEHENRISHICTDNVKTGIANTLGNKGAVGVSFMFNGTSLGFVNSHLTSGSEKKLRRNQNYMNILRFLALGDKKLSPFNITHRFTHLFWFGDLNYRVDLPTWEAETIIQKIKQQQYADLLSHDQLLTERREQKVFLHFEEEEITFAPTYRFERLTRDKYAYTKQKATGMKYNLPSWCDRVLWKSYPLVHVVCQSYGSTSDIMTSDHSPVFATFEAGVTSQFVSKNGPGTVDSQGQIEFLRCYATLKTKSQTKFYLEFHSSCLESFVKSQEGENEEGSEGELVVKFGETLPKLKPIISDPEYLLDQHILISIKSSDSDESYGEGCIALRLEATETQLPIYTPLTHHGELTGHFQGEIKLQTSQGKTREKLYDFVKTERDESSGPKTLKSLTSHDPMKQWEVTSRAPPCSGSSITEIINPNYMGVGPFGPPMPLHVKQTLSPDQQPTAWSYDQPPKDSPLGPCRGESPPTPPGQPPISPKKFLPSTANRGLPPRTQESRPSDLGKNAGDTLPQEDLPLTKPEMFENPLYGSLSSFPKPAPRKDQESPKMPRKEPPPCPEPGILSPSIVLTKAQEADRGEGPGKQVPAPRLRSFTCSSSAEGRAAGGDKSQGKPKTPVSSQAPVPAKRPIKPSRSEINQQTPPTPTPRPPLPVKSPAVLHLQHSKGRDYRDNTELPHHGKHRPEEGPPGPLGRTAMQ
Description: as §1, §2, §3

Measured: binding result

T2 sequence (P83916 whole entry): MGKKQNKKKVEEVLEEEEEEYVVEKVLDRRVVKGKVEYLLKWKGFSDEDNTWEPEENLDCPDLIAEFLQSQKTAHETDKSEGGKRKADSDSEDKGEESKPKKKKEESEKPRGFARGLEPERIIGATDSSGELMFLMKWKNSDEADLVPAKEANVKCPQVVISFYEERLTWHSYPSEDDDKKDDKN
T4 sequence (P40222 whole entry): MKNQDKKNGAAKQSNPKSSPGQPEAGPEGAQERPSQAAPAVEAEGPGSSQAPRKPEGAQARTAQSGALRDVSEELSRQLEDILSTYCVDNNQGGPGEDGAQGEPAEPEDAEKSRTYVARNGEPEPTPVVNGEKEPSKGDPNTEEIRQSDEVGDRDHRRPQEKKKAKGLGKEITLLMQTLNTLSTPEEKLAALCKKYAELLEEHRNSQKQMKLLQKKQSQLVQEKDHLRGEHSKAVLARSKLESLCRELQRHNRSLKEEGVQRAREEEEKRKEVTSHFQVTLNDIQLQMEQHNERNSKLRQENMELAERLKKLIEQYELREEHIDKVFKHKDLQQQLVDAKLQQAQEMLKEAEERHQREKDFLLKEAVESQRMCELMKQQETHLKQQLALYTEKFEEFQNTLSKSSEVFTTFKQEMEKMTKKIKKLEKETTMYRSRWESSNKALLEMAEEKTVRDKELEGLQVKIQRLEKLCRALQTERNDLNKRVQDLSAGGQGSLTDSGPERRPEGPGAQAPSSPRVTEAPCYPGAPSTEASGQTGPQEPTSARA
T3 sequence (P45973 whole entry): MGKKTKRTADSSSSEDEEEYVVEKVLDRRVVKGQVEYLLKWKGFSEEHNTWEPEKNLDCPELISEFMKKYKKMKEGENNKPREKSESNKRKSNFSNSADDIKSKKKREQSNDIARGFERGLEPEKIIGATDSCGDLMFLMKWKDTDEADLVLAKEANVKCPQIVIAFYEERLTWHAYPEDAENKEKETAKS
T6 sequence (P78358 whole entry): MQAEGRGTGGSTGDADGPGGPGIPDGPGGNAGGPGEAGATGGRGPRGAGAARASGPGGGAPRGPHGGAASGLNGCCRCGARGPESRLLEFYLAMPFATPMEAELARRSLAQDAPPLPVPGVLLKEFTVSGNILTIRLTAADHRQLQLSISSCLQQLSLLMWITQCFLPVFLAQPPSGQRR
T5 sequence (P43357 whole entry): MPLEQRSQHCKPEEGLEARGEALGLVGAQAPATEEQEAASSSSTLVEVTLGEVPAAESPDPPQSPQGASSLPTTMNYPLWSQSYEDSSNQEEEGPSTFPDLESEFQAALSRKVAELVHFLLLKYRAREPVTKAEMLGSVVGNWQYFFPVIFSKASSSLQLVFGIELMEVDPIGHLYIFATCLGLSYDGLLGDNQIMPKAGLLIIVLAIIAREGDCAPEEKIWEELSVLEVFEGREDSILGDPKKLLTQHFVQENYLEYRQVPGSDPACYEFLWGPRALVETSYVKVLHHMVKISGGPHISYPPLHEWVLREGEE

B1: TMEL1001 (antibody, V domains shown)
VH: EVQLVESGGGLVKPGGSLRLSCAASGFTFRSYSMNWVRQAPGKGLEWVSSISSSGNYIYYADSVKGRFTLSRDNAKNSLYLQMNSLRAEDTAVYYCARGGGTSWSHYWGQGTLVTVSS
VL: QFMLTQPHSVSESPGKTVTISCTRSSGSIASNYVQWYQQRPGSAPTTVIYEDNERPSGVPDRFSGSIDSSSNSASLTISGLKTEDEADYYCQSYDSNNRWVFGGGTKLTVLG
notes: It was detected with an anti-human IgG Fc gamma secondary antibody
no binding (tested: 1 µg/ml): [1] | [2] | [3] | [4] | [5] | [6] | [7]

B2: TMEL1003 (antibody, V domains shown)
VH: AVQLVQSGAEVKKPGESLRISCKGSGYSFTSYWISWVRQMPGKGLEWMGRIDPSDSYTNYSPSFQGHVTISADKSISTAYLQWSSLKTSDTAMYYCARPLQTYSIASVGHWGQGTLVTVSS
VL: ASALTQPASVSGSPGQSITISCTGTSSDVGSYNLVSWYQQHPGKAPKLMIYEGSKRPSGVSNRFSGSKSGNTASLTISGLQAEDEADYYCCSYAGSSTFAVFGGGTKLTVLG
notes: the heavy entry continues into what looks like a non-IgG (IgM-like) CH1; It was detected with an anti-human IgG Fc gamma secondary antibody
no binding (tested: 1 µg/ml): [1] | [8] | [5] | [6] | [7]

B3: TMEL1006 (antibody, V domains shown)
VH: VVQLVESGGGLVQPGGSLRLSCAASGLTFRNYAMSWVRQAPGKGLEWVSAISGSGGRTHYADSVKGRFTISRDNSKNTLFLQMNSLRAEDTAVYYCAKEIGKYGTPTLFQHWGQGTLVTVSS
VL: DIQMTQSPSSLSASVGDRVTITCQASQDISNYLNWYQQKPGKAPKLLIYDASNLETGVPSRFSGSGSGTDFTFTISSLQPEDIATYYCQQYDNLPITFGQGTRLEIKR
notes: as for B1
no binding (tested: 1 µg/ml): [1] | [2] | [8] | [3] | [4] | [7]

From patent US20220031841A1 (ABSCI, published 2022)
